Data taken from the supplement of paper PMC7877785.
± gives the uncertainty stated by the source.

Assay: self-splicing fitness, log relative to wild type (ln ratio); higher = more splicing; Tetrahymena group I intron in knt gene, E. coli kanamycin selection, DiMSum; sequences stand for … in CUCUCU…GGAGGGAAAAGUUAUCAGGCAUGCACCUGGUAGCUAGUCUUUAAACCAAUAGAUUGCAUCGGUUUAAAAGGCAAGACCGUCAAAUUGCGGGAAAGGGGUCAACAGCCGUUCAGUACCAAGUCUCAGGGGAAACUUUGAGAUGGCCUUGCAAAGGGUAUGGUAAUAAGCUGACGGACAUGGUCCUAACCACGCAGCCAAGUCCUAAGUCAACAGAUCUUCUGUUGAUAUGGAUGCAGUUCACAGACUAAAUGUCGGUCGGGGAAGAUGUAUUCUUCUCAUAAGAUAUAGUCGGACCUCUCCUUAAUGGGAGCUAGCGGAUGAAGUGAUGCAACACUGGAGCCGCUGGGAACUAAUUUGUAUGCGAAAGUAUAUUGAUUAGUUUUGGAGUACUCGUGGUCG
Procedure, shortened: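 The eight P1ex-region nucleotides of an intron in the knt kanamycin-resistance gene on pET-22b(+) were all randomised and the library put into E. coli BL21(DE3). Six replicate transformations were grown overnight at 37°C or 30°C on LB agar with or without 25 μg/mL kanamycin, together with 100 μg/mL carbenicillin, 50 μM IPTG and 0.2% rhamnose. Colonies were pooled and amplicon-sequenced on an Illumina HiSeq 2500. Fitness from DiMSum is the error-weighted combination of wild-type-normalised replicate fold changes, kanamycin over none.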

## CUCCAGCAAUAUUACGUCCG
30 °C
  self-splicing fitness (ln): -2.63 ± 0.11
37 °C
  self-splicing fitness (ln): -1.73 ± 0.12

## UGUCAGCAAUAUUACGAGAC
37 °C
  self-splicing fitness (ln): -2.91 ± 0.29

## UACUAGCAAUAUUACGUCCA
30 °C
  self-splicing fitness (ln): -0.715 ± 0.1
37 °C
  self-splicing fitness (ln): -0.49 ± 0.13

## GAACAGCAAUAUUACGCAGC
30 °C
  self-splicing fitness (ln): -2.2 ± 0.29
37 °C
  self-splicing fitness (ln): -1.16 ± 0.23

## CCCUAGCAAUAUUACGGAAG
30 °C
  self-splicing fitness (ln): -4.09 ± 0.22
37 °C
  self-splicing fitness (ln): -2.02 ± 0.19

## AUUCAGCAAUAUUACGAAUA
30 °C
  self-splicing fitness (ln): -2.49 ± 0.23
37 °C
  self-splicing fitness (ln): -1.08 ± 0.17

## AGCCAGCAAUAUUACGUUUG
30 °C
  self-splicing fitness (ln): -3.47 ± 0.13
37 °C
  self-splicing fitness (ln): -3.22 ± 0.23

## CCCAAGCAAUAUUACGAUAG
30 °C
  self-splicing fitness (ln): -2.95 ± 0.16
37 °C
  self-splicing fitness (ln): -2.54 ± 0.22

## GUUGAGCAAUAUUACGGCUA
30 °C
  self-splicing fitness (ln): -0.763 ± 0.18
37 °C
  self-splicing fitness (ln): -0.798 ± 0.19

## AGGUAGCAAUAUUACGAGAG
30 °C
  self-splicing fitness (ln): -3.887 ± 0.03
37 °C
  self-splicing fitness (ln): -2.71 ± 0.039

## UCGCAGCAAUAUUACGGGUC
37 °C
  self-splicing fitness (ln): -2.14 ± 0.23

## GGAGAGCAAUAUUACGCGUG
30 °C
  self-splicing fitness (ln): -3.84 ± 0.33
37 °C
  self-splicing fitness (ln): -2.53 ± 0.18

## CAUGAGCAAUAUUACGUAUC
30 °C
  self-splicing fitness (ln): -3.9 ± 0.32
37 °C
  self-splicing fitness (ln): -3.15 ± 0.25

## CAAGAGCAAUAUUACGCCUG
30 °C
  self-splicing fitness (ln): -1.47 ± 0.21
37 °C
  self-splicing fitness (ln): -2.17 ± 0.32

## GUAUAGCAAUAUUACGAACC
30 °C
  self-splicing fitness (ln): -2.63 ± 0.43
37 °C
  self-splicing fitness (ln): -0.238 ± 0.23

## UAUCAGCAAUAUUACGGUUU
30 °C
  self-splicing fitness (ln): -0.764 ± 0.062
37 °C
  self-splicing fitness (ln): -0.507 ± 0.07

## AAGGAGCAAUAUUACGAUAG
30 °C
  self-splicing fitness (ln): -4.31 ± 0.46
37 °C
  self-splicing fitness (ln): -2.87 ± 0.43

## AGGGAGCAAUAUUACGACUU
30 °C
  self-splicing fitness (ln): -1.41 ± 0.18
37 °C
  self-splicing fitness (ln): 0.0129 ± 0.18

## ACCCAGCAAUAUUACGGGUU
30 °C
  self-splicing fitness (ln): -4.18 ± 0.12
37 °C
  self-splicing fitness (ln): -2.84 ± 0.13

## CUAAAGCAAUAUUACGGUCA
30 °C
  self-splicing fitness (ln): -2.46 ± 0.18
37 °C
  self-splicing fitness (ln): -1.22 ± 0.2

## AGAUAGCAAUAUUACGUAGC
30 °C
  self-splicing fitness (ln): -2.88 ± 0.22
37 °C
  self-splicing fitness (ln): -2.16 ± 0.24

## AUCGAGCAAUAUUACGUGUC
30 °C
  self-splicing fitness (ln): -3.76 ± 0.22
37 °C
  self-splicing fitness (ln): -0.765 ± 0.13

## CUUGAGCAAUAUUACGUACG
30 °C
  self-splicing fitness (ln): -1.44 ± 0.097
37 °C
  self-splicing fitness (ln): -0.683 ± 0.1

## ACUAAGCAAUAUUACGGUAG
30 °C
  self-splicing fitness (ln): -4.09 ± 0.2
37 °C
  self-splicing fitness (ln): -3.56 ± 0.2

## CCAUAGCAAUAUUACGAUGU
30 °C
  self-splicing fitness (ln): -3.94 ± 0.22
37 °C
  self-splicing fitness (ln): -2.71 ± 0.2

## UCGUAGCAAUAUUACGUAGA
30 °C
  self-splicing fitness (ln): -0.639 ± 0.14
37 °C
  self-splicing fitness (ln): 0.461 ± 0.14

## CCACAGCAAUAUUACGCGGG
30 °C
  self-splicing fitness (ln): -3.14 ± 0.12
37 °C
  self-splicing fitness (ln): -2.77 ± 0.16

## CGCUAGCAAUAUUACGCAAG
30 °C
  self-splicing fitness (ln): -3.76 ± 0.32
37 °C
  self-splicing fitness (ln): -2.49 ± 0.33

## UGAUAGCAAUAUUACGUAGU
30 °C
  self-splicing fitness (ln): -4.18 ± 0.31
37 °C
  self-splicing fitness (ln): -2.38 ± 0.28

## ACAAAGCAAUAUUACGAGCG
30 °C
  self-splicing fitness (ln): -0.894 ± 0.084
37 °C
  self-splicing fitness (ln): 0.57 ± 0.096

## UGCCAGCAAUAUUACGAUAU
30 °C
  self-splicing fitness (ln): -4.12 ± 0.28
37 °C
  self-splicing fitness (ln): -1.74 ± 0.16

## GGACAGCAAUAUUACGACAA
30 °C
  self-splicing fitness (ln): -1.7 ± 0.21
37 °C
  self-splicing fitness (ln): -0.0889 ± 0.12

## UAAAAGCAAUAUUACGCCGC
37 °C
  self-splicing fitness (ln): -1.17 ± 0.23

## GCAUAGCAAUAUUACGCCUG
30 °C
  self-splicing fitness (ln): -1.22 ± 0.081
37 °C
  self-splicing fitness (ln): -1.49 ± 0.1

## GCAGAGCAAUAUUACGAGUG
30 °C
  self-splicing fitness (ln): -4.02 ± 0.48
37 °C
  self-splicing fitness (ln): -2.25 ± 0.26

## CGGAAGCAAUAUUACGCAAA
37 °C
  self-splicing fitness (ln): -2.55 ± 0.33

## GUUGAGCAAUAUUACGCAUC
30 °C
  self-splicing fitness (ln): -1.26 ± 0.25

## GUGGAGCAAUAUUACGAGUA
37 °C
  self-splicing fitness (ln): -1.96 ± 0.44

## UCCGAGCAAUAUUACGCAGA
30 °C
  self-splicing fitness (ln): -3.65 ± 0.43
37 °C
  self-splicing fitness (ln): -2.49 ± 0.23

## CUGAAGCAAUAUUACGUAUU
30 °C
  self-splicing fitness (ln): -3.86 ± 0.22
37 °C
  self-splicing fitness (ln): -2.85 ± 0.3
